Measured values reported in patent US20220306751A1 (MYTHIC THERAPEUTICS, published 2022).

T1: CD123 Protein, His Tag, Acro Biosciences Cat. No. ILA-H52H6 (Homo sapiens (Human), UniProt P26951 19-305)
T1 construct: Bought protein; not shown: His tag
T1 sequence: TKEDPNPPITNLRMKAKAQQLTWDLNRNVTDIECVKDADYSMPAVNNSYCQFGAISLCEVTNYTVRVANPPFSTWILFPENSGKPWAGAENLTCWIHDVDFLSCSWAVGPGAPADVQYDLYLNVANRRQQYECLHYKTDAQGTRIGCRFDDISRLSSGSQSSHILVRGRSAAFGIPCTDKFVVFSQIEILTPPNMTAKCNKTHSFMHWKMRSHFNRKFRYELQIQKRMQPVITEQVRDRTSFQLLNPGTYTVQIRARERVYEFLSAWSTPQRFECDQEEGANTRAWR


target: T1, CD123 Protein, His Tag, Acro …; assay: BLI, IgG on anti-human Fc sensor, 50 nM CD123, pH 7.4 and pH 5.4
Description: We selected IMGN632 (Heavy chain SEQ ID NO: 1, Light chain SEQ ID NO: 2) as a CD123-binding monoclonal antibody for pH engineering via histidine scanning. Briefly, CDRs in the heavy chain were identified using the methods described by Kabat et al (Kabat et al. (1992) Sequences of Proteins of Immunological Interest, DIANE publishing) and IMGT (Lefranc M P (1999) “The IMGT unique numbering for Immunoglobulins, T cell receptors and Ig-like domains” The Immunologist 7, 132-136), and for each CDR, residues falling under either or both Kabat and IMGT CDR definitions were called as CDR residues. To generate pH-dependent sequence variants, individual amino acid residues within the heavy chain CDRs were systematically substituted with a histidine, one at a time (MYT1252-MYT1292). In cases where the starting CDR residue was a histidine, it was mutated to an alanine. Antibody variants with only one histidine or alanine mutation in a heavy chain CDR were generated by co-transfection of Expi293 cells with a) one heavy chain sequence variant, and b) the corresponding starting ABPC light chain using methods known to the art. After allowing for four days of protein expression, cell culture supernatants were collected, quantified by SDS-PAGE analysis (FIG. 1), and the pH dependence of the variant was evaluated using biolayer interferometry (BLI) on an Octet RED 384 instrument. For constructs MYT1252, MYT1254-MYT1287, and MYT1289-1292, 104, of cell culture supernatant was diluted into 1904, of 1× PBST pH 7.4. For MYT1253 and MYT1288 254, and 504, of cell culture supernatant was diluted into 1754, and 1504, respectively. […] The resulting diluted supernatants were then captured on an anti-human Fc sensor (Forte Bio). A baseline was established using 1× PBST (50 mM Potassium Phosphate Buffer+150 mM NaCl+0.05% Tween 20) pH 7.4, and the sensor was associated with 50 nM of CD123 (CD123 Protein, His Tag, Acro Biosciences Cat. No. ILA-H52H6, Lot No. 1741d-89CF1-KB) in 1×PBST pH 7.4 for 120 sec to generate an association curve. In the dissociation phase, the antibody-antigen complex on the sensor was exposed to 1× PBST pH 7.4 for 300-600 sec. Baseline, association, and dissociation were repeated using 1×PBST pH 5.4 throughout in a separate condition.

| binding result | Binder |
| --- | --- |
| binds | MYT1253 (antibody, V domains shown, IgG) VH: QVQLVQSGAEVKKPGASVKVSCKASGHIFTSSIMHWVRQAPGQGLEWIGYIKPYNDGTKYNEKFKGRATLTSDRSTSTAYMELSSLRSEDTAVYYCAREGGNDYYDTMDYWGQGTLVTVSS VL: DIQMTQSPSSLSASVGDRVTITCRASQDINSYLSWFQQKPGKAPKTLIYRVNRLVDGVPSRFSGSGSGNDYTLTISSLQPEDFATYYCLQYDAFPYTFGQGTKVEIK |
| binds | MYT1257 (antibody, V domains shown, IgG) VH: QVQLVQSGAEVKKPGASVKVSCKASGYIFTHSIMHWVRQAPGQGLEWIGYIKPYNDGTKYNEKFKGRATLTSDRSTSTAYMELSSLRSEDTAVYYCAREGGNDYYDTMDYWGQGTLVTVSS VL: DIQMTQSPSSLSASVGDRVTITCRASQDINSYLSWFQQKPGKAPKTLIYRVNRLVDGVPSRFSGSGSGNDYTLTISSLQPEDFATYYCLQYDAFPYTFGQGTKVEIK |
| binds | MYT1258 (antibody, V domains shown, IgG) VH: QVQLVQSGAEVKKPGASVKVSCKASGYIFTSHIMHWVRQAPGQGLEWIGYIKPYNDGTKYNEKFKGRATLTSDRSTSTAYMELSSLRSEDTAVYYCAREGGNDYYDTMDYWGQGTLVTVSS VL: DIQMTQSPSSLSASVGDRVTITCRASQDINSYLSWFQQKPGKAPKTLIYRVNRLVDGVPSRFSGSGSGNDYTLTISSLQPEDFATYYCLQYDAFPYTFGQGTKVEIK |
| binds | MYT1254 (antibody, V domains shown, IgG) VH: QVQLVQSGAEVKKPGASVKVSCKASGYHFTSSIMHWVRQAPGQGLEWIGYIKPYNDGTKYNEKFKGRATLTSDRSTSTAYMELSSLRSEDTAVYYCAREGGNDYYDTMDYWGQGTLVTVSS VL: DIQMTQSPSSLSASVGDRVTITCRASQDINSYLSWFQQKPGKAPKTLIYRVNRLVDGVPSRFSGSGSGNDYTLTISSLQPEDFATYYCLQYDAFPYTFGQGTKVEIK |
| binds | MYT1263 (antibody, V domains shown, IgG) VH: QVQLVQSGAEVKKPGASVKVSCKASGYIFTSSIMHWVRQAPGQGLEWIGYHKPYNDGTKYNEKFKGRATLTSDRSTSTAYMELSSLRSEDTAVYYCAREGGNDYYDTMDYWGQGTLVTVSS VL: DIQMTQSPSSLSASVGDRVTITCRASQDINSYLSWFQQKPGKAPKTLIYRVNRLVDGVPSRFSGSGSGNDYTLTISSLQPEDFATYYCLQYDAFPYTFGQGTKVEIK |
| binds | MYT1267 (antibody, V domains shown, IgG) VH: QVQLVQSGAEVKKPGASVKVSCKASGYIFTSSIMHWVRQAPGQGLEWIGYIKPYHDGTKYNEKFKGRATLTSDRSTSTAYMELSSLRSEDTAVYYCAREGGNDYYDTMDYWGQGTLVTVSS VL: DIQMTQSPSSLSASVGDRVTITCRASQDINSYLSWFQQKPGKAPKTLIYRVNRLVDGVPSRFSGSGSGNDYTLTISSLQPEDFATYYCLQYDAFPYTFGQGTKVEIK |
| binds | MYT1269 (antibody, V domains shown, IgG) VH: QVQLVQSGAEVKKPGASVKVSCKASGYIFTSSIMHWVRQAPGQGLEWIGYIKPYNDHTKYNEKFKGRATLTSDRSTSTAYMELSSLRSEDTAVYYCAREGGNDYYDTMDYWGQGTLVTVSS VL: DIQMTQSPSSLSASVGDRVTITCRASQDINSYLSWFQQKPGKAPKTLIYRVNRLVDGVPSRFSGSGSGNDYTLTISSLQPEDFATYYCLQYDAFPYTFGQGTKVEIK |
| binds | MYT1268 (antibody, V domains shown, IgG) VH: QVQLVQSGAEVKKPGASVKVSCKASGYIFTSSIMHWVRQAPGQGLEWIGYIKPYNHGTKYNEKFKGRATLTSDRSTSTAYMELSSLRSEDTAVYYCAREGGNDYYDTMDYWGQGTLVTVSS VL: DIQMTQSPSSLSASVGDRVTITCRASQDINSYLSWFQQKPGKAPKTLIYRVNRLVDGVPSRFSGSGSGNDYTLTISSLQPEDFATYYCLQYDAFPYTFGQGTKVEIK |
| binds | MYT1266 (antibody, V domains shown, IgG) VH: QVQLVQSGAEVKKPGASVKVSCKASGYIFTSSIMHWVRQAPGQGLEWIGYIKPHNDGTKYNEKFKGRATLTSDRSTSTAYMELSSLRSEDTAVYYCAREGGNDYYDTMDYWGQGTLVTVSS VL: DIQMTQSPSSLSASVGDRVTITCRASQDINSYLSWFQQKPGKAPKTLIYRVNRLVDGVPSRFSGSGSGNDYTLTISSLQPEDFATYYCLQYDAFPYTFGQGTKVEIK |
| binds | MYT1261 (antibody, V domains shown, IgG) VH: QVQLVQSGAEVKKPGASVKVSCKASGYIFTSSIMAWVRQAPGQGLEWIGYIKPYNDGTKYNEKFKGRATLTSDRSTSTAYMELSSLRSEDTAVYYCAREGGNDYYDTMDYWGQGTLVTVSS VL: DIQMTQSPSSLSASVGDRVTITCRASQDINSYLSWFQQKPGKAPKTLIYRVNRLVDGVPSRFSGSGSGNDYTLTISSLQPEDFATYYCLQYDAFPYTFGQGTKVEIK |
| binds | MYT1265 (antibody, V domains shown, IgG) VH: QVQLVQSGAEVKKPGASVKVSCKASGYIFTSSIMHWVRQAPGQGLEWIGYIKHYNDGTKYNEKFKGRATLTSDRSTSTAYMELSSLRSEDTAVYYCAREGGNDYYDTMDYWGQGTLVTVSS VL: DIQMTQSPSSLSASVGDRVTITCRASQDINSYLSWFQQKPGKAPKTLIYRVNRLVDGVPSRFSGSGSGNDYTLTISSLQPEDFATYYCLQYDAFPYTFGQGTKVEIK |
| binds | MYT1256 (antibody, V domains shown, IgG) VH: QVQLVQSGAEVKKPGASVKVSCKASGYIFHSSIMHWVRQAPGQGLEWIGYIKPYNDGTKYNEKFKGRATLTSDRSTSTAYMELSSLRSEDTAVYYCAREGGNDYYDTMDYWGQGTLVTVSS VL: DIQMTQSPSSLSASVGDRVTITCRASQDINSYLSWFQQKPGKAPKTLIYRVNRLVDGVPSRFSGSGSGNDYTLTISSLQPEDFATYYCLQYDAFPYTFGQGTKVEIK |
| binds | MYT1259 (antibody, V domains shown, IgG) VH: QVQLVQSGAEVKKPGASVKVSCKASGYIFTSSHMHWVRQAPGQGLEWIGYIKPYNDGTKYNEKFKGRATLTSDRSTSTAYMELSSLRSEDTAVYYCAREGGNDYYDTMDYWGQGTLVTVSS VL: DIQMTQSPSSLSASVGDRVTITCRASQDINSYLSWFQQKPGKAPKTLIYRVNRLVDGVPSRFSGSGSGNDYTLTISSLQPEDFATYYCLQYDAFPYTFGQGTKVEIK |
| binds | MYT1262 (antibody, V domains shown, IgG) VH: QVQLVQSGAEVKKPGASVKVSCKASGYIFTSSIMHWVRQAPGQGLEWIGHIKPYNDGTKYNEKFKGRATLTSDRSTSTAYMELSSLRSEDTAVYYCAREGGNDYYDTMDYWGQGTLVTVSS VL: DIQMTQSPSSLSASVGDRVTITCRASQDINSYLSWFQQKPGKAPKTLIYRVNRLVDGVPSRFSGSGSGNDYTLTISSLQPEDFATYYCLQYDAFPYTFGQGTKVEIK |
| binds | MYT1260 (antibody, V domains shown, IgG) VH: QVQLVQSGAEVKKPGASVKVSCKASGYIFTSSIHHWVRQAPGQGLEWIGYIKPYNDGTKYNEKFKGRATLTSDRSTSTAYMELSSLRSEDTAVYYCAREGGNDYYDTMDYWGQGTLVTVSS VL: DIQMTQSPSSLSASVGDRVTITCRASQDINSYLSWFQQKPGKAPKTLIYRVNRLVDGVPSRFSGSGSGNDYTLTISSLQPEDFATYYCLQYDAFPYTFGQGTKVEIK |
| binds | MYT1252 (antibody, V domains shown, IgG) VH: QVQLVQSGAEVKKPGASVKVSCKASHYIFTSSIMHWVRQAPGQGLEWIGYIKPYNDGTKYNEKFKGRATLTSDRSTSTAYMELSSLRSEDTAVYYCAREGGNDYYDTMDYWGQGTLVTVSS VL: DIQMTQSPSSLSASVGDRVTITCRASQDINSYLSWFQQKPGKAPKTLIYRVNRLVDGVPSRFSGSGSGNDYTLTISSLQPEDFATYYCLQYDAFPYTFGQGTKVEIK |
| binds | MYT1255 (antibody, V domains shown, IgG) VH: QVQLVQSGAEVKKPGASVKVSCKASGYIHTSSIMHWVRQAPGQGLEWIGYIKPYNDGTKYNEKFKGRATLTSDRSTSTAYMELSSLRSEDTAVYYCAREGGNDYYDTMDYWGQGTLVTVSS VL: DIQMTQSPSSLSASVGDRVTITCRASQDINSYLSWFQQKPGKAPKTLIYRVNRLVDGVPSRFSGSGSGNDYTLTISSLQPEDFATYYCLQYDAFPYTFGQGTKVEIK |
